Experimental data: patent US20240317853A1 (UNIVERSITY OF TOKYO, published 2024)

Target: T1, CADM1FcΔ10 (Δ10 Fc variant formed by fusing human Fc with a CADM1 extracellular domain) (human)
T1 construct: The whole entry is the fusion (CADM1 extracellular domain, AAA linker, human IgG1 hinge-Fc); Dimerized via Fc; also called Fc10; dimerized FcΔ10
Test: SPR (Biacore 8K), antibody amine-coupled on CM5, CADM1 as analyte, multi-cycle kinetics
Procedure: The antibody was diluted with a phosphate buffered saline (PBS) at a concentration of 1 mg/ml, and was then immobilized as a ligand on a sensor chip CM5 by an amine coupling method.

T1 sequence (chain, as listed by the source mutant limits assumed): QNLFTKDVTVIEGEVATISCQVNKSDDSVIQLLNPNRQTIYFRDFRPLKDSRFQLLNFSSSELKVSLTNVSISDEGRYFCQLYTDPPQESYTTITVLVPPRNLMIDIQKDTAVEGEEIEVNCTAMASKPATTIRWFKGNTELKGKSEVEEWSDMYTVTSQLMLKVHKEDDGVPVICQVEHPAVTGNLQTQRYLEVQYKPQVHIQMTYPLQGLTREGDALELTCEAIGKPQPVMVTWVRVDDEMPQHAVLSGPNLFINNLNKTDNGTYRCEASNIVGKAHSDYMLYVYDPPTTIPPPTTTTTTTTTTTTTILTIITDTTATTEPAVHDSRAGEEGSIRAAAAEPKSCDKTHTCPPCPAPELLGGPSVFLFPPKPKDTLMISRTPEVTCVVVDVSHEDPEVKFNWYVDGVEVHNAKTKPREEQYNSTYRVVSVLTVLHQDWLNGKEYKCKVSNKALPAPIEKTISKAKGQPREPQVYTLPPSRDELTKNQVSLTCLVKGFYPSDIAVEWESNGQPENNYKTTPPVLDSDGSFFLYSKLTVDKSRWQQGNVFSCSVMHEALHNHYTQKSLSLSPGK

Kd: 0.64 nM
B1: YTH-W-2C2 chimeric antibody (antibody, V domains shown)
VH: QVQLQQSGAELAKPGSSVKISCKASGYTFSNYDISWIKQTTGQGLDYIGYIHTGSGGTYYNEKFKGKATLTVDKSSSTAFMQLSSLTPEDTAVYYCARTPYVYYGSGYFDFWGPGTMVTVSS
VL: DIVMTQSPSSLAVSAGETVTINCKSSQSLLYSGNQKNYLAWYQQKPGQSPKLLIYWASTRQSGVPDRFIGSGSGTDFTLTISSVQAEDLAIYYCQQYYDTPDTFGAGTKLELKR
